The record followed here is publication PMC1110745.

For this data set, the target named is GST-AP-2alpha (Homo sapiens, UniProt P05549 1-437). Briefly: competition.
GST-AP-2alpha, sequence (P05549 whole entry): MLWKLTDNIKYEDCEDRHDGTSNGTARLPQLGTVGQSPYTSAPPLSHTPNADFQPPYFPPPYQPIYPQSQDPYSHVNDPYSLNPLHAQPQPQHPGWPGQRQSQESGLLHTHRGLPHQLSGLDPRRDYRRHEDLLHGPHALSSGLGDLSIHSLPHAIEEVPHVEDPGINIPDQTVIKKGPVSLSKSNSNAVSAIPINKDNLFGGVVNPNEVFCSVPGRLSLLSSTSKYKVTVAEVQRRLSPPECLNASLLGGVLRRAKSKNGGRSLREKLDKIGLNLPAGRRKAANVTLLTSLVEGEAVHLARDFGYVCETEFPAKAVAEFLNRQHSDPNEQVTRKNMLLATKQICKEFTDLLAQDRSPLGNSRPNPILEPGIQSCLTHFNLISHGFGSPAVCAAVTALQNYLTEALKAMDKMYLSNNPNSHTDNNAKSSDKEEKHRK

B1: O58 (dsDNA)
DNA 1: GATTGTCCCTACACTCGCCTCAGGCGATCATCGGAATACACGATGCTTGG
DNA 2: CCAAGCATCGTGTATTCCGATGATCGCCTGAGGCGAGTGTAGGGACAATC
With B1, the binding result is on record as “binds”.
